Here are results for 1 substance from US20230330033A1.

The target in this assay is CD40 (UniProt P25942). The experiment in a line: cell-based or functional assay.

For LOB7/6 (antibody), the EC50 of CD40 activation, bioluminescent reporter CHO cells was -1.47 log(µM).
